The values that follow come from patent publication CN116507641A.

For assay [1], the target named is 人重组结合素-4蛋白 (recombinant human Nectin-4, extracellular domain) (human) (UniProt Q96NY8). Kind of assay: ELISA, recombinant human Nectin-4 coated on plate.
Assay [2] has as its target 人结合素-4 (full-length human Nectin-4 on cells) (human) (UniProt Q96NY8). In words: FACS competition: antibody titrated against biotinylated human Nectin-1-His (competitor, 0.75 ug/ml) on CHO-Nectin-4 cells.

人重组结合素-4蛋白 (recombinant human Nectin-4, extracellular domain) (human), sequence (Q96NY8 32-349): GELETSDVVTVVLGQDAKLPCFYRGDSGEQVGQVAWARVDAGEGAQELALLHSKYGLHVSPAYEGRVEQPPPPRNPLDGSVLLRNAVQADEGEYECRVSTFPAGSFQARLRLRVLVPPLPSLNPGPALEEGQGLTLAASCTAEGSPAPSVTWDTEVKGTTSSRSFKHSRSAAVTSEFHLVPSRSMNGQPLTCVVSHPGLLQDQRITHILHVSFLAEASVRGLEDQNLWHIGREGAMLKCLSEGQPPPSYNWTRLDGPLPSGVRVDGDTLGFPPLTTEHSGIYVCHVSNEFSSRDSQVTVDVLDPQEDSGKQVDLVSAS
人结合素-4 (full-length human Nectin-4 on cells) (human), sequence (Q96NY8 32-510): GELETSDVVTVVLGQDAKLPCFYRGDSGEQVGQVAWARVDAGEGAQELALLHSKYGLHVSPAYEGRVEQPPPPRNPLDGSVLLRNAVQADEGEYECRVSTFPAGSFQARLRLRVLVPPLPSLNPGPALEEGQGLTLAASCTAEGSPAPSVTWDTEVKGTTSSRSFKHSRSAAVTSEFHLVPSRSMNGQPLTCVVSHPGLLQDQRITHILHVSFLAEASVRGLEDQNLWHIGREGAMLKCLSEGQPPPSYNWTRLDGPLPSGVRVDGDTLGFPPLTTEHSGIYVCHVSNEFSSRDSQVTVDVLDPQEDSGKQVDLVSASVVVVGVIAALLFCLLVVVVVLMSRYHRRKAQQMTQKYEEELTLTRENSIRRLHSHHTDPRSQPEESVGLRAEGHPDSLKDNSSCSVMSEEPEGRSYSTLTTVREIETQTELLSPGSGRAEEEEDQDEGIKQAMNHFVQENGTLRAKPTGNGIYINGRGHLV

With “阳性对照1 (PC1), in-house Nectin-4-specific antibody based on enfortumab antibody (AGS-22M6)”, the EC50 in assay [1] was determined as 340 pM; in assay [2], 160 pM.
